Columns and labels:
[1] = target: T1, CRP (N-his-CRP) (Shewanella oneidensis MR-1) (UniProt Q8EJ49); test: EMSA; details: 20 ul: 2 nM Cy3-labeled probe, 50 ng N-his-CRP, 50 uM cAMP, buffer as in Kasai et al. 2015 (salt, pH, temperature not given)
T1 sequence: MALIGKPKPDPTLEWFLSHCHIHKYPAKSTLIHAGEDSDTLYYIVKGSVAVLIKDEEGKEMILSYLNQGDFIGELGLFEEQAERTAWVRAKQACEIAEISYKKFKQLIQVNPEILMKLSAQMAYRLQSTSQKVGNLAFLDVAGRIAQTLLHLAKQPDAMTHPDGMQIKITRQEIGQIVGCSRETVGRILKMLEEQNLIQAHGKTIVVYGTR

CRP (N-his-CRP) = CRP (N-his-CRP) (Shewanella oneidensis MR-1, UniProt Q8EJ49 1-211); test: EMSA; 50 uM cAMP; EMSA, 20 ul: 2 nM Cy3-labeled probe, 50 ng N-his-CRP, 50 uM cAMP; buffer as in Kasai et al. 2015 (salt, pH, temperature not given); details: protein: recombinant; tags: N-terminal His tag; chain copies: 2; label: 5'-Cy3 (forward strand); blunt

GGATCAGTTAATTGCAATACTGATAGCTAATTTAATGAAAATTTCCTTTTTTATAACTATCTGACATGTTTTTTAAAAAAATATTTGAATGGAGTTATATATACCCCACTCTTTAAGTGACA (double strand) [PBlldP1]
binding [1]: no binding

GGATCAGTTAATTGCAATACTGATAGCTAATTTAATGAAAATTTCCTTTTTTATAACTATCTGACATGTTTTTTAAAAAAATATTTGAATGGAGTTATATATACCCCACTCTTTAAGTGACACCGATCACAGTTAAGAAAATCCCATGAGAGAAGCCTCCCGCAGCACTGTAAATTAGCATT (double strand) [PBlldP2]
binding [1]: binds

B1: PBlldP3 (dsDNA)
DNA 1: ATATACCCCACTCTTTAAGTGACACCGATCACAGTTAAGAAAATCCCATG
DNA 2: CATGGGATTTTCTTAACTGTGATCGGTGTCACTTAAAGAGTGGGGTATAT
binding result (CRP (N-his-CRP)): binds

B2: PBlldP3m (dsDNA)
DNA 1: ATATACCCCACTCTTTACCCCCCACCGAGGGGGGTTAAGAAAATCCCATG
DNA 2: CATGGGATTTTCTTAACCCCCCTCGGTGGGGGGTAAAGAGTGGGGTATAT
binding result (CRP (N-his-CRP)): no binding
